Laboratory results as given in patent publication US20130315910A1 (Xencor, published 2013).

How the values were obtained:
[1] = molecular target: T1, human FcγRIIb receptor protein (R&D Systems) (human, UniProt P31994 46-217); assay: Biacore SPR, antibody captured on protein A/G chip, FcγR injected
T1 construct: Bought protein injected over captured antibody in Biacore; also called CD32b
T1 sequence (looked up): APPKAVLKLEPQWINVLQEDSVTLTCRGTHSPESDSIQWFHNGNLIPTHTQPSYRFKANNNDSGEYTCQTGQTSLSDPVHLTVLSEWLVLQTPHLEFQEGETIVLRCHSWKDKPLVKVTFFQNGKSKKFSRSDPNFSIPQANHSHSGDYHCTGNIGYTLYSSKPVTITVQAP

[2] = molecular target: T2, human FcγRIIb on cells (transfected HEK293T cells; primary human B cells) (human, UniProt P31994 43-310); assay: flow cytometry on FcγRIIb-transfected 293T cells [top left panel]
T2 construct: whole, on cells; also called CD32b
T2 sequence (looked up): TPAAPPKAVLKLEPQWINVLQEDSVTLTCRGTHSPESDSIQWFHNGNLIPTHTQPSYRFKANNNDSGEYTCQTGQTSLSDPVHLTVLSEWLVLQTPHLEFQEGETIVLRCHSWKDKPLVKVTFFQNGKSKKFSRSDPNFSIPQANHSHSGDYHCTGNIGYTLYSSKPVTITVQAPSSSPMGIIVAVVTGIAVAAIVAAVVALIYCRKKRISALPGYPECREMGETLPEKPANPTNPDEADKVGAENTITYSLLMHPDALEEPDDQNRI
Procedure: (§1) In order to validate the Biacore data and evaluate receptor binding of the variants on the cell surface, binding of select antibodies to cells expressing FcγRIIb was measured. […] HEK293T cells in DMEM with 10% FBS were transfected with human FcγRIIb cDNA in pCMV6 expression vector (Origene Technologies, Rockville, Md.), cultured for 3 days, harvested, washed twice in PBS, resuspended in PBS with 0.1% BSA (PBS/BSA), and aliquoted at 2×10^5 cells per well into 96-well microtiter plates. Fc variant antibodies were serially diluted in PBS/BSA then added to the cells and incubated with mixing for 1 h at room temperature. After extensive washing with PBS/BSA, phycoerythrin (PE)-labeled anti-human-Fab-specific goat F(ab′)2 fragment was added for detection. Cells were incubated for 30 min at room temperature, washed, and resuspended in PBS/BSA. Binding was evaluated using a FACSCanto II flow cytometer (BD Biosciences, San Jose, Calif.), and the mean fluorescence intensity (MFI) was plotted as a function of antibody concentration using Graph Pad Prism software (GraphPad Software, San Diego, Calif.) from which half-maximal binding (EC50) values were determined by sigmoidal dose response modeling.

[3] = molecular target: T2, human FcγRIIb on cells (transfected …); assay: flow cytometry on FcγRIIb-transfected 293T cells [middle left panel]
Procedure: as §1

[4] = molecular target: T2, human FcγRIIb on cells (transfected …); assay: flow cytometry on FcγRIIb-transfected 293T cells [bottom right panel]
Procedure: as §1

[5] = molecular target: T2, human FcγRIIb on cells (transfected …); assay: flow cytometry on FcγRIIb-transfected 293T cells [middle right panel]
Procedure: as §1

- Kd [1]: 71.9 nM
- EC50 (read off the curve) [2]: ~0.01 µg/mL
- EC50 (read off the curve) [3]: ~0.03 µg/mL
- EC50 (read off the curve) [4]: ~0.02 µg/mL
- EC50 (read off the curve) [5]: ~0.03 µg/mL
B1: anti-CD19 antibody HuAM4G7 IgG1 S267E (antibody)
heavy: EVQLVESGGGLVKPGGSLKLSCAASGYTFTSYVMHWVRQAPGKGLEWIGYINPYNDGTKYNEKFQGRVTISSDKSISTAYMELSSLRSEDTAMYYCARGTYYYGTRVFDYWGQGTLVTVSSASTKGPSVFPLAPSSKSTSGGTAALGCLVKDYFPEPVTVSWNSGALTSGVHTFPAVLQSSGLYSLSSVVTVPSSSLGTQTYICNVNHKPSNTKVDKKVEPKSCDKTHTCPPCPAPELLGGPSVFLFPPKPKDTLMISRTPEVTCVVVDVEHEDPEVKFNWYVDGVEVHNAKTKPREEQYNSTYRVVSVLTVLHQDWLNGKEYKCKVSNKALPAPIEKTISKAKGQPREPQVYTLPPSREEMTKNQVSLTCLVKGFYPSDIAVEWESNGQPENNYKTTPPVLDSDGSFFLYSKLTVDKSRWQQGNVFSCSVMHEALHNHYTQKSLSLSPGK
light: DIVMTQSPATLSLSPGERATLSCRSSKSLQNVNGNTYLYWFQQKPGQSPQLLIYRMSNLNSGVPDRFSGSGSGTEFTLTISSLEPEDFAVYYCMQHLEYPITFGAGTKLEIKRTVAAPSVFIFPPSDEQLKSGTASVVCLLNNFYPREAKVQWKVDNALQSGNSQESVTEQDSKDSTYSLSSTLTLSKADYEKHKVYACEVTHQGLSSPVTKSFNRGEC
notes: Positions in EU numbering; copies: 2 + 2
